Laboratory results as given in patent US20130058934A1 (Novartis, published 2013).

T1: LRP6-Fc (R&D Systems, catalog No: 1505-LR) (human, UniProt O75581 20-1370)
T1 construct: Purchased reagent; also called LRP6 protein; 360 KD homodimer antigen LRP6-Fc; not shown: Fc part of the purchased fusion
T1 sequence (looked up): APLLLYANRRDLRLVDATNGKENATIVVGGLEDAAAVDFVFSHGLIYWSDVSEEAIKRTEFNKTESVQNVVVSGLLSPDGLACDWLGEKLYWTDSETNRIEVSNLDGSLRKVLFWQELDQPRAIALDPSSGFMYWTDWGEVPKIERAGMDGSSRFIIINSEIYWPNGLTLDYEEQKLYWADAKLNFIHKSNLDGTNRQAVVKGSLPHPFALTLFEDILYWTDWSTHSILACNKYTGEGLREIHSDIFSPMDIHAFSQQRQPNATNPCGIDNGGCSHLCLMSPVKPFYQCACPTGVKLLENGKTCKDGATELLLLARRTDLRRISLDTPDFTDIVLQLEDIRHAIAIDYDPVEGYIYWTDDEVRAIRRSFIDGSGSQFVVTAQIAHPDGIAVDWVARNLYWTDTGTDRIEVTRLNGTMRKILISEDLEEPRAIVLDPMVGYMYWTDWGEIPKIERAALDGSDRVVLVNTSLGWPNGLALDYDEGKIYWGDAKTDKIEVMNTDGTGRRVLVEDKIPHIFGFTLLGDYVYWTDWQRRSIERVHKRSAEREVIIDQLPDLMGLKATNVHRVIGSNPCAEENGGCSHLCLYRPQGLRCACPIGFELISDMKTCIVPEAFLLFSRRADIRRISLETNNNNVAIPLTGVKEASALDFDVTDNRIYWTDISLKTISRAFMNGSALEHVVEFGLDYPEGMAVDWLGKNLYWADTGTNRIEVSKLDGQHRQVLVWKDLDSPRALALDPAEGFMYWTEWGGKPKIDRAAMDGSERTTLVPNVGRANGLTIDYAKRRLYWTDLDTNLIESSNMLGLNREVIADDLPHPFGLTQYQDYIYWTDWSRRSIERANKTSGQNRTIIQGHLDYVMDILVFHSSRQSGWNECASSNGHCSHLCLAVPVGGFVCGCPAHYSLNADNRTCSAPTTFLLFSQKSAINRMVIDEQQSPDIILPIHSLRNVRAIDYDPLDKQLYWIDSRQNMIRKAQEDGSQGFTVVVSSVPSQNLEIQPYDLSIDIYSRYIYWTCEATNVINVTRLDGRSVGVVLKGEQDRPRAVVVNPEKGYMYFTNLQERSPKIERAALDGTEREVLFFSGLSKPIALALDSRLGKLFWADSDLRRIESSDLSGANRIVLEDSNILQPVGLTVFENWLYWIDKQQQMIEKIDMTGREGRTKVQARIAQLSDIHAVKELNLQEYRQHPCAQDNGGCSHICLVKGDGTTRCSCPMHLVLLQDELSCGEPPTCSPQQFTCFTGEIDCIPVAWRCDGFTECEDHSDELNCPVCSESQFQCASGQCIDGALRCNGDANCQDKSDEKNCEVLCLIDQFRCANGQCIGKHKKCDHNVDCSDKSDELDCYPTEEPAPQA

T2: LRP6 PD3/4 (human, UniProt O75581 631-1246)
T2 construct: range 631-1246; Recombinant soluble fragment; also called Propeller Domains 3-4 of LRP6; recombinant LRP6 PD3/4
T2 sequence (looked up): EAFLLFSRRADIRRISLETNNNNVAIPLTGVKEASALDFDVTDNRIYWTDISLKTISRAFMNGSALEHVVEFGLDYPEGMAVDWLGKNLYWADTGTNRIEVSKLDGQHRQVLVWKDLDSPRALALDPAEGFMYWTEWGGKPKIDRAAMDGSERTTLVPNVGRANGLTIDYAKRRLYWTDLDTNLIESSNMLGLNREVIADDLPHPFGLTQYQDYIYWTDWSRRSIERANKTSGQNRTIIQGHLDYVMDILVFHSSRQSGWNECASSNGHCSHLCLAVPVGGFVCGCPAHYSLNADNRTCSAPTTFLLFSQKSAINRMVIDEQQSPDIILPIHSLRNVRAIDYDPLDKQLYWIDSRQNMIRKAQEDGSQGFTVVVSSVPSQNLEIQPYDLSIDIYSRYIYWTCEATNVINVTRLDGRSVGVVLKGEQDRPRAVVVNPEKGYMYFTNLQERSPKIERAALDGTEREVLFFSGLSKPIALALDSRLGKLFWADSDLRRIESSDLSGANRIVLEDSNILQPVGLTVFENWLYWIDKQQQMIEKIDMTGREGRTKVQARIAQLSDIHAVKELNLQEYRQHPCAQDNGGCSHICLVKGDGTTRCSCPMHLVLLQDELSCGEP


What was measured:
human LRP6 [1] = biological target: T3, human LRP6 (human, UniProt O75581 20-1613); test: FACS on HEK293T/17 cells, endogenous human LRP6
T3 construct: whole, on cells; Endogenous LRP6 on human cells (PA1, HEK293T/17); also called endogenous LRP6 on PA1 cells and HEK293T/17 cells
Method: (§1) Cross-species reactivity to murine and cynomologus LRP6 was determined on cells by FACS analysis. FACS staining was performed essentially as described above. Human U266 cells (no expression of LRP6) were used as a negative control.
(§2) To show cross-reactivity, cells expressing endogenous LRP6 of human (HEK293T/17) and mouse origin (NIH 3T3), or transiently transfected HEK293/T17 cells expressing cynomolgus LRP6, were treated and subjected to flow cytometry as described above.
Target sequence in this assay (O75581 20-1613): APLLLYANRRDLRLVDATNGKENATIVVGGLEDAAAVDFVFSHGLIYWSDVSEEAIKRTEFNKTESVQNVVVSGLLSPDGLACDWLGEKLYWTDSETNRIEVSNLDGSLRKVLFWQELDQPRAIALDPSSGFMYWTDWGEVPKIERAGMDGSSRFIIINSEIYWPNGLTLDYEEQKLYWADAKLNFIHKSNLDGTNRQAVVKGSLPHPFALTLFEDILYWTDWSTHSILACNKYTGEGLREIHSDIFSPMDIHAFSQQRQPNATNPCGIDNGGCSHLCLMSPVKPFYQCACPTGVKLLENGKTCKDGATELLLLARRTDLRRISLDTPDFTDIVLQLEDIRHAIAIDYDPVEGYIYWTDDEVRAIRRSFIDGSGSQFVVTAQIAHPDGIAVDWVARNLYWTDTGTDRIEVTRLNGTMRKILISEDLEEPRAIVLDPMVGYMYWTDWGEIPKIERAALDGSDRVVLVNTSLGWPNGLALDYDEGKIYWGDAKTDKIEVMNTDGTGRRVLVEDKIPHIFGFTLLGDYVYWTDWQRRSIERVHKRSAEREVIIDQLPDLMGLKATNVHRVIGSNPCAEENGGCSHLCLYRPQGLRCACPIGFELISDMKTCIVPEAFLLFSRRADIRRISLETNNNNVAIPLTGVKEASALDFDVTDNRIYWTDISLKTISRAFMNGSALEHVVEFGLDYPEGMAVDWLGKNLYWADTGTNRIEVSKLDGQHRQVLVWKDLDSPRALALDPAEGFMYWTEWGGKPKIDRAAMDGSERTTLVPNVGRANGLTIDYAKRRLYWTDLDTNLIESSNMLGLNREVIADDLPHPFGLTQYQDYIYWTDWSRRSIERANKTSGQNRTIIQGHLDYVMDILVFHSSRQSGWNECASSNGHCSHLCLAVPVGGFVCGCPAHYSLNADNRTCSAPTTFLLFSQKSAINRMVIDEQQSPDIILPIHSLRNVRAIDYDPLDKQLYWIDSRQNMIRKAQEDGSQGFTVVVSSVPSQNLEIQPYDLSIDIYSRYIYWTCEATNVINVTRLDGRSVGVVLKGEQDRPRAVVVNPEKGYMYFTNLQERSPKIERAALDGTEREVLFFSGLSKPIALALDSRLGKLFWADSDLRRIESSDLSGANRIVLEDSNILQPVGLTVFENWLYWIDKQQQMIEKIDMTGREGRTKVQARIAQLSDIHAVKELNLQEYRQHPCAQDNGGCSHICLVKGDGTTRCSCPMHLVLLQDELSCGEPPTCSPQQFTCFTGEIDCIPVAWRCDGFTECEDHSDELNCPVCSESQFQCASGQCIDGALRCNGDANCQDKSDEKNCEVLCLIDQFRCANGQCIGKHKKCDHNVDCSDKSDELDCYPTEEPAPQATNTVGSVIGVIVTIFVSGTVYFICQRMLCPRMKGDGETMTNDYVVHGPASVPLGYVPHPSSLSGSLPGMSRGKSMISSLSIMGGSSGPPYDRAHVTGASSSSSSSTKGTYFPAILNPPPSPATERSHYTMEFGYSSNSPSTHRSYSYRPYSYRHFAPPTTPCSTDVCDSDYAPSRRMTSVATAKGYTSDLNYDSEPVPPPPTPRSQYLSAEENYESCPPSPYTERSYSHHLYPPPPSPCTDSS

mouse LRP6 = biological target: T4, mouse LRP6 (mouse, UniProt O88572 20-1613); test: FACS on NIH 3T3 cells, endogenous mouse LRP6
T4 construct: whole, on cells; also called murine LRP6; endogenous LRP6 on NIH 3T3 cells
Method: as §1, §2

[2] = biological target: T1, LRP6-Fc (R&D Systems, catalog No: …); test: ELISA on coated LRP6-Fc, detection with pentaHis-HRP
Method: Binding EC₅₀ of scFvs against LRP6 protein was measured by ELISA. Maxisorp plate was coated with LRP6-Fc (R&D Systems, catalog No: 1505-LR) at 3 μg/ml at 4° C. overnight. The plate was blocked with 50 μl of 2% BSA for one hour, and washed five times with the wash solution. The samples were diluted with 1% BSA accordingly. The plate was incubated at RT for 1 h, and washed for 3 times. Detection was done by adding 50 μl pentaHis-HRP (Qiagen Mat. No. 1014992) at 1:2000 dilution in 1% BSA, incubated at RT for 1 h, and washed 3 times. 50 μl of substrate reagent A plus B (R&D systems) was added, then incubated for 5-20 min depending on the color. The reaction was stopped by adding 25 μl of the stop solution, followed by plate reading at 450 nm.
Affinity analysis ELISA EC₅₀ was carried out for both scFv08168 and scFv06475 wild type and variants.

human LRP6 [3] = biological target: T3, human LRP6; test: cell-based or functional assay
LRP6 PD3/4 = biological target: T2, LRP6 PD3/4; test: Biacore T-100 SPR, antibody captured by anti-human IgG Fc on a CM4 chip, PD3/4 injected; N = 4
Method: The carboxymethyl dextran surface was activated with a 7 min injection of a 1:1 ratio of 0.4 M EDC (1-Ethyl-3-[3-dimethylaminopropyl]carbodiimide hydrochloride) and 0.1 M NHS(N-hydroxysuccinimide). […] PD1/2 and PD3/4 were prepared as two fold concentration series starting at 50 nM, and injected at 30 μl/min for 1 min. […] The surfaces were then regenerated two times with 10 mM glycine (pH 2.2). […] PD3/4 at a saturating concentration of 100 nM was then flowed over the surface at a flow rate of 30 μl/min for 30 min. A saturating concentration of 100 nM PD1/2 was injected immediately after the PD3/4. The dissociation constant (KD), association (kₒₙ), and dissociation (koff) rates were calculated from the baseline subtracted corrected binding curves using the BIAevaluation software (GE Healthcare).

T4 sequence (O88572 20-1613): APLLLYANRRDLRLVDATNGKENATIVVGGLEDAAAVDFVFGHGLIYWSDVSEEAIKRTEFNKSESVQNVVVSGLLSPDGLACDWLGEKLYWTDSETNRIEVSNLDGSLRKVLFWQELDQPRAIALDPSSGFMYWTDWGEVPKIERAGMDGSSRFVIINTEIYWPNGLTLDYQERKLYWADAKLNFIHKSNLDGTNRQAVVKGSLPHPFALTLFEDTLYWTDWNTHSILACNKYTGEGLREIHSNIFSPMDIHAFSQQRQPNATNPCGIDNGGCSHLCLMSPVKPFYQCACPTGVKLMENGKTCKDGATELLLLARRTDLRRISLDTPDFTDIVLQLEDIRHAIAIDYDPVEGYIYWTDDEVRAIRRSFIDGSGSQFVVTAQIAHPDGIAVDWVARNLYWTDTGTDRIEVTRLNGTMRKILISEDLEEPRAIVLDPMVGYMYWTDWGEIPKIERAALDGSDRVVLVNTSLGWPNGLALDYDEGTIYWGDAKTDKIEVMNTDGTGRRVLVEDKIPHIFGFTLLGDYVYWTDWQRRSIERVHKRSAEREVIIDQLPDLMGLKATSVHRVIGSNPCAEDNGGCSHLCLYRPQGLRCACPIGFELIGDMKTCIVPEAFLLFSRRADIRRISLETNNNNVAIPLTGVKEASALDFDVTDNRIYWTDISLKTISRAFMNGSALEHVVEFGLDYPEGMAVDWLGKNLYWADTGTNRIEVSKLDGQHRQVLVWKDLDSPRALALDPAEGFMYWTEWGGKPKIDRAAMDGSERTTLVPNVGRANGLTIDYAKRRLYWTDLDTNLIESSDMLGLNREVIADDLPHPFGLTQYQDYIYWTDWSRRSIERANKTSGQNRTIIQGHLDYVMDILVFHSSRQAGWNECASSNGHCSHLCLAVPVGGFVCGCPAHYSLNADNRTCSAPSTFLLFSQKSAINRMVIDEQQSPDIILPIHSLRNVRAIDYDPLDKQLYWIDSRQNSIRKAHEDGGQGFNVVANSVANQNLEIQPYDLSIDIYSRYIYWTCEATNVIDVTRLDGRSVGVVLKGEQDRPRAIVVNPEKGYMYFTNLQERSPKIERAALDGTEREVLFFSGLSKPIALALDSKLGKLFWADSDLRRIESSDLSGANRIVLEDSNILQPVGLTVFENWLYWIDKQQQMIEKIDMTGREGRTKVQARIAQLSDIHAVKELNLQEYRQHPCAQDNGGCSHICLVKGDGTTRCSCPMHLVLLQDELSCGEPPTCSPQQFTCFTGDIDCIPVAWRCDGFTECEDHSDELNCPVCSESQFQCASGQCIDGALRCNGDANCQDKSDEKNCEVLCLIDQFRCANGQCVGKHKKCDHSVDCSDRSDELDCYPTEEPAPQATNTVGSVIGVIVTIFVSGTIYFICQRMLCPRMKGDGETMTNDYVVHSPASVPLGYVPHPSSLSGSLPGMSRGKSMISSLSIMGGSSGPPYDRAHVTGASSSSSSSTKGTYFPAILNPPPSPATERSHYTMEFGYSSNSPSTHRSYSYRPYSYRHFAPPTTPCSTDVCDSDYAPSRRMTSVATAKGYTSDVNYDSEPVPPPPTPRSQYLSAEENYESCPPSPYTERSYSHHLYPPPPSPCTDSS

Binder	EC50 (human LRP6 [1])	EC50 (mouse LRP6)	also measured
MOR08473 Fab (Fab, V domains shown, also called Propeller 3 anti-LRP6 Fab MOR08473) VH: QVQLVESGGGLVQPGGSLRLSCAASGFTFSSYGMSWVRQAPGKGLEWVSNISNDGHYTYYADSVKGRFTISRDNSKNTLYLQMNSLRAEDTAVYYCARFQASYLDIMDYWGQGTLVTVSS VL: DIELTQPPSVSVAPGQSITISCSGDNIGSKYVHWYQQKPGQAPVLVIYNDSNRPSGIPERFSGSNSGNTATLTISGTQAEDEADYYCQAWGDNGTRVFGGGTKLTVLG	0.74 nM	0.46 nM	
scFv08168 VH:I34M (scFv, V domains shown, Point mutant of scFv08168 (His tag)) VH: QVQLVESGGGLVQPGGSLRLSCAASGFTFSDYVMNWVRQAPGKGLEWVSGISWSGVNTHYADSVKGRFTISRDNSKNTLYLQMNSLRAEDTAVYYCARLGATANNIRYKFMDVWGQGTLVTVSS VL: DIELTQPPSVSVAPGQTARISCSGDSLRNKVYWYQQKPGQAPVLVIYKNNRPSGIPERFSGSNSGNTATLTISGTQAEDEADYYCQSYDGQKSLVFGGGTKLTVL			EC50 [2]: 0.98 nM
MOR08168 Fab (Fab, V domains shown, HuCAL Fab expressed in E. coli from pMORPH X9/X11 FH vectors and purified by Ni-NTA; also called Propeller 1 anti-LRP6 Fab MOR08168) VH: QVQLVESGGGLVQPGGSLRLSCAASGFTFSDYVINWVRQAPGKGLEWVSGISWSGVNTHYADSVKGRFTISRDNSKNTLYLQMNSLRAEDTAVYYCARLGATANNIRYKFMDVWGQGTLVTVSS VL: DIELTQPPSVSVAPGQTARISCSGDSLRNKVYWYQQKPGQAPVLVIYKNNRPSGIPERFSGSNSGNTATLTISGTQAEDEADYYCQSYDGQKSLVFGGGTKLTVL	0.28 nM	0.12 nM	
scFv08168-D4 (scFv, not shown: small tags and cut ends) scFv: QVQLVESGGGLVQPGGSLRLSCAASGFTFSDYVMNWVRQAPGKGLEWVSSISWSGVNTHYADSVKGRFTISRDNSKNTLYLQMNSLRAEDTAVYYCARLGATANNIRYKFMDVWGQGTLVTVSSGGGGSGGGGSGGGGSDIELTQPPSVSVAPGQTARISCSGDSLRNKVYWYQQKPGQAPVLVIYKNNRPSGIPERFSGSNSGNTATLTISGTQAEDEADYYCQSYDGQKSLVFGGGTKLTVL			IC50 by STF assay for Wnt1 inhibition (human LRP6 [3]): 5.56 nM
scFv08168-D2 (scFv, not shown: small tags and cut ends) scFv: QVQLVESGGGLVQPGGSLRLSCAASGFTFSDYVFNWVRQAPGKGLEWVAGISWSGVNTHYADSVKGRFTISRDNSKNTLYLQMNSLRAEDTAVYYCARLGATANNIRYKFMDVWGQGTLVTVSSGGGGSGGGGSGGGGSDIELTQPPSVSVAPGQTARISCSGDSLRNKVYWYQQKPGQAPVLVIYKNNRPSGIPERFSGSNSGNTATLTISGTQAEDEADYYCQSYDGQKSLVFGGGTKLTVL			IC50 by STF assay for Wnt1 inhibition (human LRP6 [3]): 2.59 nM
scFv MOR06475 (scFv, V domains shown) VH: QVQLKESGPALVKPTQTLTLTCTFSGFSLSNRGGGVGWIRQPPGKALEWLAWIDWDDDKSYSTSLKTRLTISKDTSKNQVVLTMTNMDPVDTATYYCARMHLPLVFDSWGQGTLVTVSS VL: DIVLTQSPATLSLSPGERATLSCRASQFIGSRYLAWYQQKPGQAPRLLIYGASNRATGVPARFSGSGSGTDFTLTISSLEPEDFATYYCQQYYDYPQTFGQGTKVEIK			IC50 by STF assay for Wnt3a inhibition (human LRP6 [3]): 1.48 nM
MOR06475 IgG (antibody, V domains shown, also called MOR6475; MOR6475 (propeller 3 antibody)) VH: QVQLKESGPALVKPTQTLTLTCTFSGFSLSNRGGGVGWIRQPPGKALEWLAWIDWDDDKSYSTSLKTRLTISKDTSKNQVVLTMTNMDPVDTATYYCARMHLPLVFDSWGQGTLVTVSS VL: DIVLTQSPATLSLSPGERATLSCRASQFIGSRYLAWYQQKPGQAPRLLIYGASNRATGVPARFSGSGSGTDFTLTISSLEPEDFATYYCQQYYDYPQTFGQGTKVEIKR			Kd (LRP6 PD3/4): 1.13 nM; koff (LRP6 PD3/4): 0.000217 s⁻¹; kon (LRP6 PD3/4): 201000 M⁻¹ s⁻¹
MOR06706 Fab (Fab, V domains shown, also called Propeller 1 anti-LRP6 Fab MOR06706) VH: QVQLVESGGGLVQPGGSLRLSCAASGFTFSDYAIHWVRQAPGKGLEWVSGISYSGSSTHYADSVKGRFTISRDNSKNTLYLQMNSLRAEDTAVYYCARGSHGNIMAKRYFDFWGQGTLVTVSS VL: DIELTQPPSVSVAPGQTARISCSGDNIRKKYVYWYQQKPGQAPVLVIYEDSKRPSGIPERFSGSNSGNTATLTISGTQAEDEADYYCSTADSGINNGVFGGGTKLTVL	0.14 nM		

Second part, led by results:

EC50 (human LRP6 [1])	EC50 (mouse LRP6)	Binder	also measured
0.09 nM	0.06 nM	MOR08545 Fab (Fab, V domains shown, also called Propeller 1 anti-LRP6 Fab MOR08545) VH: QVQLVESGGGLVQPGGSLRLSCAASGFTFSVNGMHWVRQAPGKGLEWVSVIDGMGHTYYADSVKGRFTISRDNSKNTLYLQMNSLRAEDTAVYYCARYDYIKYGAFDPWGQGTLVTVSS VL: DIELTQPPSVSVAPGQTARISCSGDNIGSKYVHWYQQKPGQAPVLVIYGDSNRPSGIPERFSGSNSGNTATLTISGTQAEDEADYYCTRTSTPISGVFGGGTKLTVLG	
0.36 nM	0.08 nM	MOR08193 Fab (Fab, V domains shown, also called Propeller 3 anti-LRP6 Fab MOR08193) VH: QVQLKESGPALVKPTQTLTLTCTFSGFSLSNRGGGVGWIRQPPGKALEWLAWIDWDDDKSYSTSLKTRLTISKDTSKNQVVLTMTNMDPVDTATYYCARMHLPLVFDSWGQGTLVTVSS VL: DIVLTQSPATLSLSPGERATLSCRASQFIGSRYLAWYQQKPGQAPRLLIYGASNRATGVPARFSGSGSGTDFTLTISSLEPEDFAVYYCQQYWSIPITFGQGTKVEIKR	
